Data: US20210024615A1 (LIVERPOOL SCHOOL OF TROPICAL MEDICINE, published 2021)
Substitutions are numbered along the chain they refer to.

T1: human FcγRIIB (human, UniProt P31994 46-217)
T1 construct: also called CD32B
T1 sequence (looked up): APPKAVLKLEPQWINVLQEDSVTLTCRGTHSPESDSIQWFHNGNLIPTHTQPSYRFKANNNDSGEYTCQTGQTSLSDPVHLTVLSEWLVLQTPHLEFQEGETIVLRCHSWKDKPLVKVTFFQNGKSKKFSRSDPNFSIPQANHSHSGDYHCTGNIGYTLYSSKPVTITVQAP

T2: dectin-1 (UniProt Q9BXN2-2 66-201)
T2 construct: also called dec-1
T2 sequence (looked up): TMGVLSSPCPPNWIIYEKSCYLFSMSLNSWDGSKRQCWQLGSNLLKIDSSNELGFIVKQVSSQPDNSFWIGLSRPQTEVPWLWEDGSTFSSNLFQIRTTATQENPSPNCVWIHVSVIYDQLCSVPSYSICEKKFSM

T3: MMR (UniProt P22897 19-1383)
T3 sequence (looked up): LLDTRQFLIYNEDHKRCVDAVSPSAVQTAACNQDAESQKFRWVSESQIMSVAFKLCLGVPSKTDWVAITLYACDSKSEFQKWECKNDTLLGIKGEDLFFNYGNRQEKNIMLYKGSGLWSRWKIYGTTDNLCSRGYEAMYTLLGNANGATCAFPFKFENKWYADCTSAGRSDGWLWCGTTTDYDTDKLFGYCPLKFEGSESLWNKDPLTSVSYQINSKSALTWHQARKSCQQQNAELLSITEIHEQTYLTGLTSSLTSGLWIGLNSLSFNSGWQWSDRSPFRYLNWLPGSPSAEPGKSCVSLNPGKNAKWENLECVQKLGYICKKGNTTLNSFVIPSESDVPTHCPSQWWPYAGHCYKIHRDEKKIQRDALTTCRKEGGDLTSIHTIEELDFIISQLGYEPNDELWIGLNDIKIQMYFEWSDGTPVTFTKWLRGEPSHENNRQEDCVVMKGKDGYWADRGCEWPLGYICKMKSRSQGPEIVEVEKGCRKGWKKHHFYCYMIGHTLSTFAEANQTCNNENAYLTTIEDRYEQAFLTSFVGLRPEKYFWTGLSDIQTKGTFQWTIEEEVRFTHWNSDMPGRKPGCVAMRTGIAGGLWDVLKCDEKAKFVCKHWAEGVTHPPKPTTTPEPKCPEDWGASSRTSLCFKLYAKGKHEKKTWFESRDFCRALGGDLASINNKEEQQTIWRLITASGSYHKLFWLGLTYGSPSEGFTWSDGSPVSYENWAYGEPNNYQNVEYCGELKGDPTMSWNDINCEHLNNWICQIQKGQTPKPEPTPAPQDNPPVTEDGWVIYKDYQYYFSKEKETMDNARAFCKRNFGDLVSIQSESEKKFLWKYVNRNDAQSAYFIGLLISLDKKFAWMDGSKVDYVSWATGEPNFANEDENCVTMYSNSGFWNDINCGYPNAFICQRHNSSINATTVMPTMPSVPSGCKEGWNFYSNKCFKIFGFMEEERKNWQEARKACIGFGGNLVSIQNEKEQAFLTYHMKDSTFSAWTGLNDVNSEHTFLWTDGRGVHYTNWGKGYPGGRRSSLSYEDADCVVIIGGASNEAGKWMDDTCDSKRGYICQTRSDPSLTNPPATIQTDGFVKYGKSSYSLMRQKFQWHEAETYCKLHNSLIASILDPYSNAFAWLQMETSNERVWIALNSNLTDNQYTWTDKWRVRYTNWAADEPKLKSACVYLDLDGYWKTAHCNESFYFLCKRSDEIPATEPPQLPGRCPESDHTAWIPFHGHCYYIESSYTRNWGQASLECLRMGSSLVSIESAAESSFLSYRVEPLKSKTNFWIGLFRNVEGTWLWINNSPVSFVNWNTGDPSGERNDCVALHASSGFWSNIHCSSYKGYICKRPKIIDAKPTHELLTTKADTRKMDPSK

T4: clec-4d (UniProt Q8WXI8 39-215)
T4 sequence (looked up): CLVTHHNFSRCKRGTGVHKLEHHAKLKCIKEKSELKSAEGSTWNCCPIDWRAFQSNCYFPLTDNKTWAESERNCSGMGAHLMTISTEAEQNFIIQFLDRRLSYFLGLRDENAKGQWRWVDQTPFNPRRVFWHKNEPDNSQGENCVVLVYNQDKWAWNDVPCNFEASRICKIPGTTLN

T5: clec-4a (UniProt Q9UMR7 70-237)
T5 construct: also called DCIR
T5 sequence (looked up): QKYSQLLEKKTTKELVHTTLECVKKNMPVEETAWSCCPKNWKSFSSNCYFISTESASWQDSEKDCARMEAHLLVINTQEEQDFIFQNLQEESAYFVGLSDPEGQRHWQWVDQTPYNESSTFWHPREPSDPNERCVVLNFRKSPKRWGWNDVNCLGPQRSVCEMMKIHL

T6: CD23 (UniProt P06734 48-321)
T6 sequence (looked up): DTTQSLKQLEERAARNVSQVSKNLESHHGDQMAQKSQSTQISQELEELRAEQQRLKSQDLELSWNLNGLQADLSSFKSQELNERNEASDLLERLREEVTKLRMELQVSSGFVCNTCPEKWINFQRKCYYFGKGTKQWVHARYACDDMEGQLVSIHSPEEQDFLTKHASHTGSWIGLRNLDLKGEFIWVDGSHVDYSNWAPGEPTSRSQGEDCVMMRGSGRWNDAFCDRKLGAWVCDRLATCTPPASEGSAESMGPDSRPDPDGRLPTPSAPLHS

T7: tetrameric human DC-SIGN (human, UniProt Q9NNX6 66-404)
T7 sequence (looked up): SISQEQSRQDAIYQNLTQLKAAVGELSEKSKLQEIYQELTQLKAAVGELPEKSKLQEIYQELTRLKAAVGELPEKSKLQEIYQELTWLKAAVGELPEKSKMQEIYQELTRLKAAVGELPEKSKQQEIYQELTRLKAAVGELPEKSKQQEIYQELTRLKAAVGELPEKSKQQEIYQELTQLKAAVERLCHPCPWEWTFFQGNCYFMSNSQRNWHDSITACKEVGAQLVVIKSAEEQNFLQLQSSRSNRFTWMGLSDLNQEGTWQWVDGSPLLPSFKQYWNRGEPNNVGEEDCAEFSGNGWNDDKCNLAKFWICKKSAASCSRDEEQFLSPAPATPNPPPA

T8: human FcγRIIA (human, UniProt P12318 36-218)
T8 sequence (looked up): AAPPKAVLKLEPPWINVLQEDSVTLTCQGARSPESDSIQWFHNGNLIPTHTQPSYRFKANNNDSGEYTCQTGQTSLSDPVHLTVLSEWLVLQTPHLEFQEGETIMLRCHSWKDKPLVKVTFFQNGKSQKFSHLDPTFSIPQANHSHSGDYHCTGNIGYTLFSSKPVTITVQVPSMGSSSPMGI

B1: [change]/[change]/[change] (other)
chain: NKTHTCPPCPAPELLGGPSVFLFPPKPKDTLMISRTPEVTCVVVDVSHEDPEVKFNWYVDGVEVHNAKTKPREEQYNSTYRVVSVLTVCLQDWLNGKEYKCKVSNKALPAPIEKTISKAKGQPREPQVYTLPPSREEMTKNQVSLTCLVKGFYPSDIAVEWESNGQPENNYKTTPPVLDSDGSFFLYSKLTVDKSRWQQGNVFSCSVMHEALHNHYTQKSLSLSPGKLVLGPPLYAVSLVMSDTAGTAY
B2: [change]/[change]/[change]/[change] (other)
chain: B1 chain with N77A

Assays:
Assay in all cases: ELISA
human FcγRIIIA = human FcγRIIIA (human, UniProt P08637 17-208)
Chain of human FcγRIIIA (P08637 17-208 limits assumed): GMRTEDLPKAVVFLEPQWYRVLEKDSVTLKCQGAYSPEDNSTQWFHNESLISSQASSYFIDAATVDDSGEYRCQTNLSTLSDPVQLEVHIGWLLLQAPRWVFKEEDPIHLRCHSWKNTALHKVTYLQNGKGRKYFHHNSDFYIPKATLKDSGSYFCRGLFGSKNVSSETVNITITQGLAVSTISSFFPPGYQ

human FcγRIIB = molecular target: T1, human FcγRIIB
Siglec-2 = molecular target: T9, Siglec-2 (UniProt P20273 20-687)
T9 construct: also called CD22

dectin-1 = molecular target: T2, dectin-1
MMR = molecular target: T3, MMR
clec-4d = molecular target: T4, clec-4d
clec-4a = molecular target: T5, clec-4a
Siglec-3 = Siglec-3 (UniProt P20138 18-259)
Chain of Siglec-3 (P20138 18-259 limits assumed): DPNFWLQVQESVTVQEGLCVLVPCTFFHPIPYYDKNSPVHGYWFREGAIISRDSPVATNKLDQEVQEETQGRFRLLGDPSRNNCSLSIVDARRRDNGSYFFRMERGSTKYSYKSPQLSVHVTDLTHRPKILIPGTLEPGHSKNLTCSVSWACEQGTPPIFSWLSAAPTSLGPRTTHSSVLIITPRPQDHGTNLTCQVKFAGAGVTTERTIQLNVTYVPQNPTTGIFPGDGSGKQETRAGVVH

CD23 = molecular target: T6, CD23
tetrameric human DC-SIGN = molecular target: T7, tetrameric human DC-SIGN
MBL = MBL (UniProt P11226 21-248)
Chain of MBL (P11226 21-248 limits assumed): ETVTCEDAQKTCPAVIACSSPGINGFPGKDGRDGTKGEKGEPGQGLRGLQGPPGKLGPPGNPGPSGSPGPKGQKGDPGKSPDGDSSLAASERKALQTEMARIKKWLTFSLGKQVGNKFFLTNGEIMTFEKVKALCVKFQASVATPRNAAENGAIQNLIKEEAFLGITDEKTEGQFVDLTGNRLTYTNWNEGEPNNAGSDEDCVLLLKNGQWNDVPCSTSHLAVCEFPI

human FcγRIIA = molecular target: T8, human FcγRIIA
human FcγRIIIB = human FcγRIIIB (human, UniProt O75015 17-200)
Chain of human FcγRIIIB (O75015 17-200 limits assumed): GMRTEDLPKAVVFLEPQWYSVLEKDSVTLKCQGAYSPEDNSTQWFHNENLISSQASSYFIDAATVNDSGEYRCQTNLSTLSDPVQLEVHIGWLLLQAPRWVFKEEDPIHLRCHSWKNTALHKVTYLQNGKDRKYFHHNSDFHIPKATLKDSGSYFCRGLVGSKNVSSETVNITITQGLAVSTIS

Binder	binding result (human FcγRIIIA)	binding result (human FcγRIIB)	binding result (Siglec-2)	binding result (dectin-1)	binding result (MMR)	binding result (clec-4d)	binding result (clec-4a)	binding result (Siglec-3)	binding result (CD23)	binding result (tetrameric human DC-SIGN)	binding result (MBL)	binding result (human FcγRIIA)	binding result (human FcγRIIIB)
B1	binds	no binding	no binding	no binding	no binding	no binding	no binding	no binding	no binding	no binding	no binding	–	–
B2	no binding	no binding	–	no binding	no binding	–	no binding	–	–	no binding	no binding	no binding	no binding
